Positions count from the first letter of the chain named.
T1: cynomolgus macaque (Macaca fascicularis) CD39 on cells (cynomolgus macaque (Macaca fascicularis), UniProt P49961 7-510 (human entry))
T1 construct: CHO cells engineered to express cyno CD39, or primary cyno B cells and monocytes; also called cyno CD39; cCD39
T1 chain: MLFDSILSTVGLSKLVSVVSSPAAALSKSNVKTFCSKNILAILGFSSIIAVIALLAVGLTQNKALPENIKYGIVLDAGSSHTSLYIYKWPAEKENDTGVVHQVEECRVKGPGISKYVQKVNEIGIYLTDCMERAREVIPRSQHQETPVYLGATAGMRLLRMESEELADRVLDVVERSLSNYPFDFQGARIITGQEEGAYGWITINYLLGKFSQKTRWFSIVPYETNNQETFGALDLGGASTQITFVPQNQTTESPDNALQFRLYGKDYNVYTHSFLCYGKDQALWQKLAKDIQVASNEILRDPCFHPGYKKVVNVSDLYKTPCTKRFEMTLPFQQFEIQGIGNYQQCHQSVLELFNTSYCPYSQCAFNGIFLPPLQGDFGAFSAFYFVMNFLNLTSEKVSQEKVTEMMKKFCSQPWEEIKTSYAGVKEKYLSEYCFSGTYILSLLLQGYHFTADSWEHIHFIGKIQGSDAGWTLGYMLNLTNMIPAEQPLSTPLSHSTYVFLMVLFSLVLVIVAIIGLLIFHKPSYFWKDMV

T2: rhCD39-ECD-His (R&D Systems) (human, UniProt P49961 38-478)
T2 construct: Bought protein; that entry runs on through the C-terminal transmembrane and cytoplasmic residues; also called recombinant human CD39 extracellular domain; soluble recombinant human CD39 (ENTDP1) ECD; not shown: His tag
T2 sequence: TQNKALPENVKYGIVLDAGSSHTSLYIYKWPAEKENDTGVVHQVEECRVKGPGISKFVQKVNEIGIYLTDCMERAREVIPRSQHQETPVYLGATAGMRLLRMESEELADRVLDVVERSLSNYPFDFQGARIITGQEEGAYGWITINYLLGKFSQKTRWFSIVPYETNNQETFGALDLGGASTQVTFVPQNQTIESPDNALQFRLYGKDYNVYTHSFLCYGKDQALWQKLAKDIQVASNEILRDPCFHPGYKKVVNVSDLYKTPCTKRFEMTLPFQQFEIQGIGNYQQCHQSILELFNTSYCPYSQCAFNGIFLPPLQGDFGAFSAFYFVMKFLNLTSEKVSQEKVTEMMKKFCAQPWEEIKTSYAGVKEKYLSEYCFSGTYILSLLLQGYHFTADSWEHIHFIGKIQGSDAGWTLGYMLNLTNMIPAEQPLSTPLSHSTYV

T3: human CD39 on cells (human, UniProt P49961 1-510)
T3 construct: One molecule for all cells that carry human CD39; the cell is named under assay; also called hCD39; cellular CD39
T3 sequence: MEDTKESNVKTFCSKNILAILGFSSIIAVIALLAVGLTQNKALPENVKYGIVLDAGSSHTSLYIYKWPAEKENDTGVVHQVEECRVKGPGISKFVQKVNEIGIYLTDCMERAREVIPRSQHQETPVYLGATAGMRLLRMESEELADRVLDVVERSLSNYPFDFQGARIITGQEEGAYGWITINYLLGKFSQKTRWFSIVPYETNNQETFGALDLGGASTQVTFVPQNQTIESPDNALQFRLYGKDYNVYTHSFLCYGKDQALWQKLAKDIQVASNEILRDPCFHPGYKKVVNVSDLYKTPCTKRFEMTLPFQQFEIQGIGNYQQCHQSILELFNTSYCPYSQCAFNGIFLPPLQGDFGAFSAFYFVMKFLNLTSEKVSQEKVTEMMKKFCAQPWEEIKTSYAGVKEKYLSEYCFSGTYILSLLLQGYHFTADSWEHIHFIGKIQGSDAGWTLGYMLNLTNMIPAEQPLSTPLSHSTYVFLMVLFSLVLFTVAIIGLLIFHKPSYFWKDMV

B1: 27536 (antibody, V domains shown)
VH: QVQLVQSGAEVKKPGSSVKVSCKASGGTFSNYAISWVRQAPGQGLEWMGGIIPIFGTANYAQKFQGRVTITADESTSTAYMELSSLRSEDTAVYYCARDTLYSSGAYYGYNVWGQGTMVTVSS
VL: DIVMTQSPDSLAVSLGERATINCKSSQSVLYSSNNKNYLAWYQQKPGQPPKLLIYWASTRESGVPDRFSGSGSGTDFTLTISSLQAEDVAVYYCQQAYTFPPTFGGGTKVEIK
B2: 27568 (antibody, V domains shown)
VH: QVQLVQSGAEVKKPGSSVKVPCKASGGTFSSYAISWVRQAPEQGLEWMGSIIPIFGTANYAQKFQGRVTITADESTSTAYMELSSLRSEDTAVYYCAGESGGYRDHKLDVWGQGTVVTVSS
VL: EIVLTQSPATLSLSPGERATLSCRASQSVSSYLAWYQQKPGQAPRLLIYDASNRATGIPARFSGSGSGTDFTLTISSLEPEDFAVYYCQQSVFWPITFGGGTKVEIKR
B3: 27587 (antibody, V domains shown)
VH: B2 VH with P21S, E42G, G98R, V116M
VL: B2 VL with N53K, S91D, F93L, I96L
B4: 31896 (antibody, V domains shown)
VH: QVQLVQSGAEVKKPGSSVKVSCKASGGTFSKLAISWVRQAPGQGLEWMGGIGFGTANYAQKFQGRVTITADESASTAYMELSSLRSEDTAVYYCARGGAKYASTHGMDVWGQGTTVTVSS
VL: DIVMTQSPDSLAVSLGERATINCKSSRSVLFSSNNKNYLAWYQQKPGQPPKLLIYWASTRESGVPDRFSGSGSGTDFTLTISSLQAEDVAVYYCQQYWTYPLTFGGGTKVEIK
B5: 31915 (antibody, V domains shown)
VH: B4 VH with K31S, A33P, A74T, T104K, H105W
VL: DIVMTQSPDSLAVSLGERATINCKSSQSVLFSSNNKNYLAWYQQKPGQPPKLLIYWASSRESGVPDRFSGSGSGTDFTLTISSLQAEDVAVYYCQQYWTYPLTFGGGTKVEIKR
B6: 27535 (antibody, V domains shown)
VH: QVQLVQSGAEVKKPGSSVKVSCKASGGTFSSYAISWVRQAPGQGLEWMGGIIPIFGTANYAQKFQGRVTITADESTSTAYMELSSLRSEDTAVYYCARDTPRWRYHYFDYWGQGTLVTVSS
VL: B2 VL with N53K, S91V, V92L, F93N, W94Y, I96L
B7: 27549 (antibody, V domains shown)
VH: QVQLVESGGGVVQPGRSLRLSCAASGFTFSSYGMNWVRQAPGKGLEWVAVIWYDGSNKYYADSVKGRFTISRDNSKNTLYLQMNSLRAEDTAVYYCARDLGGYSYGEPYYYYYGMDVWGQGTTVTVSS
VL: EIVLTQSPGTLSLSPGERATLSCRASQSVSSDYLAWYQQKPGQAPRLLIYGASSRATGIPDRFSGSGSGTDFTLTISRLEPEDFAVYYCQQAHSSPYTFGGGTKVEIKR
B8: 27550 (antibody, V domains shown)
VH: EVQLVESGGGLVKPGGSLRLSCAASGFTFSSYSMNWVRQAPGKGLEWVSSISSSSSYIYYADSVKGRFTISRDNAKNSLYLQMNSLRAEDTAVYYCARERRGSLALGMDVWGQGTLVTVSS
VL: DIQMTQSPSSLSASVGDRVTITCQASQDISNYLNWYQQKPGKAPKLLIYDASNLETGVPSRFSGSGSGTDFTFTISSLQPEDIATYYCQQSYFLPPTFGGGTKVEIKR
B9: 27571 (antibody, V domains shown)
VH: B2 VH with V20A, P21S, E42G, Q65R, A79T, G98R, K107R, V116M
VL: EIVMTQSPATLSVSPGERATLSCRASQSVGSNLAWYQQKPGQAPRLLIYGASTRATGIPARFSGSGSGTEFTLTISSLQSEDFAVYYCQQYLIWPLTFGGGTKVEIK
B10: 27579 (antibody, V domains shown)
VH: QVQLVQSGAEVKEPGASVKVSCKAPGYTFTSYYMHWVRQAPGQGLEWMGVINPSGGSTSYAQKFQGRVTMTRDTSTSTVYMELSSLRSEDTAVYYCARGKREGGTEYLRHWGQGTLVTVSS
VL: EIVLTQSPGTLSLSPGERATLSCRASQSVSSSYLAWYQQKPGQAPRLLIYGASSRATGIPDRFSGSGSGTDFTLTISRLEPEDFAVYYCQQYHSYITFGGGTKVEIK
B11: 29872 (antibody, V domains shown)
VH: B10 VH with E13K, P25S, T30K, Y33E, V50R, G55V, S59W
VL: B10 VL
B12: 31429 (antibody, V domains shown)
VH: B10 VH with E13K, P25S, T30V, Y33F, V50S, S54R
VL: B10 VL with S28Y, G51Y, S54N, Y95G
B13: 31431 (antibody, V domains shown)
VH: B10 VH with E13K, P25S, Y33Q, V50R, S59W
VL: B10 VL with S30A, S54N, A56H, S94G, Y95G
B14: 31414 (antibody, human IgG4 S228P, kappa, V domains shown)
VH: B10 VH with E13K, P25S, T30K, Y33E, V50R, G55V, S59W, H110N
VL: EIVLTQSPGTLSLSPGERATLSCRASQSVSSSYLAWYQQKPGQAPRLLIYGASSRATGIPDRFSGSGSGTDFTLTISRLEPEDFAVYYCQQYHSYITFGGGTKVEIKR
B15: 31418 (antibody, V domains shown)
VH: B10 VH with E13K, P25S, T30K, Y33E, V50R, S59W
VL: B14 VL with H93Y, S94F
B16: 31415 (antibody, V domains shown)
VH: B10 VH with E13K, P25S, Y33Q, V50R, S59W, H110S
VL: B14 VL
B17: 31430 (antibody, V domains shown)
VH: B10 VH with E13K, P25S, T30K, Y33E, V50R, S59W
VL: B14 VL with R24E, S31Y, T57N, Y95A, I96L
B18: 31891 (antibody, V domains shown)
VH: B10 VH with E13K, P25S, T28I, T30K, Y33E, V50R, G55V, S59W, H110V
VL: B14 VL with G51Y, T57Y, S94N, Y95A

Biological target: T1, cynomolgus macaque (Macaca …)
Experiment: flow cytometry, 100 nM IgG, cCD39-CHO cells; MFI ratio to parental CHO
Procedure: (§1) 100 nanomolar IgGs (each antibody is indicated as a unique clone number in the FIG.) were incubated at […] 30 minutes on ice in phosphate buffered saline (PBS) with parental CHO cells or CHO cells engineered to express either human or cynomolgus macaque (Macaca fascicularis) CD39 (CHO CD39 cells). Cells were then washed with ice cold PBS and incubated with a fluorescently labeled goat-anti-human IgG for 20 minutes on ice. Cells were washed and resuspended in ice cold PBS prior to analysis by flow cytrometry.

Binder	Cell Binding (FOB)
B1	113
B2	260
B3	1400
B4	4540
B5	4580
B6	738
B7	566
B8	2870
B9	1610
B10	2670
B11	4190
B12	3800
B13	3530
B14	3570
B15	3180
B16	3360
B17	3570
B18	4650

biological target: T2, rhCD39-ECD-His (R&D Systems); experiment: BLI (Octet), IgG on anti-human Fc sensor, rhCD39-ECD-His 10-300 nM, 1:1 fit
Procedure: The kinetic data was globally fit with a simple 1:1 Langmuir binding model to yield on-rate (kon) and off-rate (koff) values. The equilibrium dissociation constants (KD) were calculated from the kon and koff values.
Binding kinetics were measured using the Octet Red96 system (ForteBio) at 25° C. in running buffer (1× Pall ForteBio Kinetics Buffer diluted into PBS or Tris pH 7.4). […] After a short baseline step in running buffer, the sensors were exposed to varying concentrations (10-300 nM) of rhCD39-ECD-His (R&D Systems) for the association step. Dissociation of the complex was monitored upon exposure of the sensors to running buffer once again. Data was processed using ForteBio Octet software with baseline subtraction, global fit and 1:1 binding model to obtain association and dissociation rates. KD was calculated from the ratio of kd to kₐ.

Binder	Kd [nM]	koff [s⁻¹]	kon [M⁻¹ s⁻¹]
B1	114	0.00751	65900
B2	173	0.047	272000
B3	33.7	0.00711	211000
B4	9.05	0.00815	901000
B5	0.811	0.000286	353000
B8	143	0.0633	444000
B9	16.4	0.0105	639000

biological target: T3, human CD39 on cells; experiment: flow cytometry, 100 nM IgG, hCD39-CHO cells; MFI ratio to parental CHO
Procedure: as §1

Binder	Cell Binding (FOB)
B1	89
B2	267
B3	1450
B4	1040
B5	1090
B6	301
B7	822
B8	2030
B9	1400
B10	1950
B11	1450
B12	1290
B13	1240
B14	1240
B15	1080
B16	1170
B17	1220
B18	1030

Source: patent publication US20250026850A1 (TRISHULA THERAPEUTICS, published 2025)
